Test results taken from article PMC3417120 (Cancer research, 2012).

Target: p53, recombinant (UniProt P04637 1-393)
Assay: BLI

Chain of p53, recombinant (P04637 whole entry): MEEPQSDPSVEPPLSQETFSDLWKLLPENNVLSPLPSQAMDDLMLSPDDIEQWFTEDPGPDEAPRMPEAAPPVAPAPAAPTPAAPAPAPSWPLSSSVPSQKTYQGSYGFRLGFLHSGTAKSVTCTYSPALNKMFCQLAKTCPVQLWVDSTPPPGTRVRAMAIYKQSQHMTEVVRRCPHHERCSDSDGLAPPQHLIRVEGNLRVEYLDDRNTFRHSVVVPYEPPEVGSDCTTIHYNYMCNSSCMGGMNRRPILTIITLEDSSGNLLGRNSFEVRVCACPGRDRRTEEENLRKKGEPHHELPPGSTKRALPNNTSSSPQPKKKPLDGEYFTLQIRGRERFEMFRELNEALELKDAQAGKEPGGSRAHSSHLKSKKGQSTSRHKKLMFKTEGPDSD

B1: recombinant HMGB1 B box (domain or fragment)
chain: KFKDPNAPKRPPSAFFLFCSEYRPKIKGEHPGLSIGDVAKKLGEMWNNTAADDKQPYEKKAAKLKEKYEKDIAAY
modifications: Limits not given; 88-162 is the usual B box construct of the source laboratory (Tracey).
Kd: 14.5 nM
